Data taken from patent US20240116985A1 (published 2024).
Starred links: 1 amine or outer side, 2 acyl side, 3 side chain; linkers in the order of their positions; H or OH if unused. Positions of bridges follow the written chain, without caps; N, C: chain ends. Non-standard residues stand in square brackets, D forms with d. Primed or numbered codes have the meaning given here. B5(11) = 2,2-bis(4-pentenyl)glycine = 2-amino-2-(pent-4-en-1-yl)hept-6-enoic acid (stitching residue, bears both staples), C=CCCCC(CCCC=C)(N[*:1])C(=O)[*:2]; B5(4) = 2,2-bis(4-pentenyl)glycine = 2-amino-2-(pent-4-en-1-yl)hept-6-enoic acid (stitching residue), C=CCCCC(CCCC=C)(N[*:1])C(=O)[*:2]; B5(14) = 2-amino-2-(pent-4-en-1-yl)hept-6-enoic acid (bis-pentenylglycine), C=CCCCC(CCCC=C)(N[*:1])C(=O)[*:2]; Phe(3,4-F2) = N[C@@H](Cc1ccc(F)c(F)c1)C(=O)O; Phe(3-Cl) = N[C@@H](Cc1cccc(Cl)c1)C(=O)O; Phe(4-Cl) = N[C@@H](Cc1ccc(Cl)cc1)C(=O)O; Phe(4-NH2) = Nc1ccc(C[C@H](N)C(=O)O)cc1; Phe(3-Me) = Cc1cccc(C[C@H](N)C(=O)O)c1; 2Nal = N[C@@H](Cc1ccc2ccccc2c1)C(=O)O; His(τ-Me) = Cn1cnc(C[C@H](N)C(=O)O)c1; αAllylPro = C=CC[C@@]1(C(=O)O)CCCN1; 3Thi = N[C@@H](Cc1ccsc1)C(=O)O; S8 = C=CCCCCCC[C@](C)(N)C(=O)O

T1: full-length beta-Catenin (Uniprot ID P35222) (Homo sapiens (Human), UniProt P35222 1-781)
T1 construct: the AlphaScreen used a Histidine (Nickel Chelate) detection kit, so a His tag is likely but not described; also called B-Catenin; bCat
T1 sequence: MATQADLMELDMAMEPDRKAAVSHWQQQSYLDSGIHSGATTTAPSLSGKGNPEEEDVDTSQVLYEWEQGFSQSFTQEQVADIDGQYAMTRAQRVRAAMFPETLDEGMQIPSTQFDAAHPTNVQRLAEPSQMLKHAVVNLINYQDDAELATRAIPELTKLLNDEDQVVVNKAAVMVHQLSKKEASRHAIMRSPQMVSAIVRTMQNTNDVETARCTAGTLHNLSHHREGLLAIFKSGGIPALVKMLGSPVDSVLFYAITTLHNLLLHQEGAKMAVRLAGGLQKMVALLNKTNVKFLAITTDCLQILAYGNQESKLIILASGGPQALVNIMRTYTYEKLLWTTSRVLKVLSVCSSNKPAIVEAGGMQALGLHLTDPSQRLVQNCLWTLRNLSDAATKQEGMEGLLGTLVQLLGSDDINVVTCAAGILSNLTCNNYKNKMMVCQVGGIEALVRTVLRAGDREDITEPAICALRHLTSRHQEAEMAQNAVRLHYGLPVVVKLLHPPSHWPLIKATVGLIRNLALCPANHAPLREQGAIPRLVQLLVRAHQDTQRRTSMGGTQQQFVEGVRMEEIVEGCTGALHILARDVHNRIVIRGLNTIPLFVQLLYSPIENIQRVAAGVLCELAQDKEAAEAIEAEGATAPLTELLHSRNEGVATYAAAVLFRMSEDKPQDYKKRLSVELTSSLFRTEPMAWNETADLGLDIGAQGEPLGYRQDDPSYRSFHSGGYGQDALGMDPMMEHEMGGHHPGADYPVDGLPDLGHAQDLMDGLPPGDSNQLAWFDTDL

T2: full-length beta-Catenin (Uniprot ID P35222) (Homo sapiens (Human), UniProt P35222 1-781)
T2 construct: Used full-length in the FP and AlphaScreen assays; also called B-Catenin; bCat
T2 sequence: T1 sequence

B1: I-308 (peptide)
peptide: Ac-[αAllylPro]DA[B5(4)]DDAA[Phe(4-Cl)]V[S8]FWQ-NH2
modifications: staple 1-4, 4-11; not fully specified; printed as Ac-PL3-Asp-Ala-B5-Asp-Asp-Ala-Ala-4C1F-Val-S8-Phe-Trp-Gln-NH2
notes: Ac-PL3-Asp-Ala-B5-Asp-Asp-Ala-Ala-4C1F-Val-S8-Phe-Trp-Gln-NH2; stapled peptide composition
B2: I-307 (peptide)
peptide: Ac-[αAllylPro]DA[B5(4)]DDAA[Phe(3-Cl)]V[S8]FWQ-NH2
modifications: staple 1-4, 4-11; not fully specified; printed as Ac-PL3-Asp-Ala-B5-Asp-Asp-Ala-Ala-3C1F-Val-S8-Phe-Trp-Gln-NH2
notes: Ac-PL3-Asp-Ala-B5-Asp-Asp-Ala-Ala-3C1F-Val-S8-Phe-Trp-Gln-NH2; stapled peptide composition
B3: I-323 (peptide)
peptide: Ac-[αAllylPro]DA[B5(11)]DDAA[Phe(4-NH2)]V[S8]FWQ-NH2
modifications: staple 1-4, 4-11; not fully specified; printed as Ac-PL3-Asp-Ala-B5-Asp-Asp-Ala-Ala-4AmPhe-Val-S8-Phe-Trp-Gln-NH2
notes: Ac-PL3-Asp-Ala-B5-Asp-Asp-Ala-Ala-4AmPhe-Val-S8-Phe-Trp-Gln-NH2; stapled peptide composition
B4: I-326 (peptide)
peptide: Ac-[αAllylPro]DA[B5(4)]DDAA[3Thi]V[S8]FWQ-NH2
modifications: staple 1-4, 4-11
notes: Ac-PL3-Asp-Ala-B5-Asp-Asp-Ala-Ala-3Thi-Val-S8-Phe-Trp-Gln-NH2; stapled peptide composition
B5: I-322 (peptide)
peptide: Ac-[αAllylPro]DA[B5(11)]DDAA[Phe(4-NH2)]V[S8]FWQ-NH2
modifications: staple 1-4, 4-11; not fully specified; printed as Ac-PL3-Asp-Ala-B5-Asp-Asp-Ala-Ala-4AmPhe-Val-S8-Phe-Trp-Gln-NH2
notes: as for B3
B6: I-306 (peptide)
peptide: Ac-[αAllylPro]DA[B5(4)]DDAA[Phe(3-Cl)]V[S8]FWQ-NH2
modifications: staple 1-4, 4-11
notes: as for B2
B7: I-330 (peptide)
peptide: Ac-[αAllylPro]DA[B5(4)]DDAA[His(τ-Me)]V[S8]FWQ-NH2
modifications: staple 1-4, 4-11
notes: Ac-PL3-Asp-Ala-B5-Asp-Asp-Ala-Ala-1meH-Val-S8-Phe-Trp-Gln-NH2; stapled peptide composition
B8: I-331 (peptide)
peptide: Ac-[αAllylPro]DA[B5(14)]DDAAHV[S8]FWQ-NH2
modifications: staple 1-4, 4-11; not fully specified (residue 9)
notes: Ac-PL3-Asp-Ala-B5-Asp-Asp-Ala-Ala-3meH-Val-S8-Phe-Trp-Gln-NH2; stapled peptide composition
B9: I-329 (peptide)
peptide: Ac-[αAllylPro]DA[B5(4)]DDAA[His(τ-Me)]V[S8]FWQ-NH2
modifications: staple 1-4, 4-11; not fully specified; printed as Ac-PL3-Asp-Ala-B5-Asp-Asp-Ala-Ala-1meH-Val-S8-Phe-Trp-Gln-NH2
notes: as for B7
B10: I-304 (peptide)
peptide: Ac-[αAllylPro]DA[B5(4)]DHAAFV[S8]FWQ-NH2
modifications: staple 1-4, 4-11
notes: Ac-PL3-Asp-Ala-B5-Asp-His-Ala-Ala-Phe-Val-S8-Phe-Trp-Gln-NH2; stapled peptide composition
B11: I-305 (peptide)
peptide: Ac-[αAllylPro]DA[B5(4)]DHAAFV[S8]FWQ-NH2
modifications: staple 1-4, 4-11
notes: as for B10
B12: I-187 (peptide)
peptide: XDAXDEAAFAXFWA
modifications: not fully specified; As printed: Ac-PL3-Asp-Ala-B5-Asp-Glu-Ala-Ala-Phe-Ala-S8-Phe-Trp-Ala-NH2. N-terminal Ac; C-terminal amide; PL3 (1), B5 (4), S8 (11) stapled by olefin metathesis (PL3-B5 and B5-S8)
notes: Stapled peptide composition; this is the later-eluting isomer composition
B13: I-181 (peptide)
peptide: XDIXDEAAFQXFWQ
modifications: not fully specified; As printed: Ac-PL3-Asp-Ile-B5-Asp-Glu-Ala-Ala-Phe-Gln-S8-Phe-Trp-Gln-NH2. N-terminal Ac; C-terminal amide; PL3 (1), B5 (4), S8 (11) stapled by olefin metathesis (PL3-B5 and B5-S8)
notes: as for B12
B14: I-178 (peptide)
peptide: XDAXDEAAFQXFWH
modifications: not fully specified; As printed: Ac-PL3-Asp-Ala-B5-Asp-Glu-Ala-Ala-Phe-Gln-S8-Phe-Trp-His-NH2. N-terminal Ac; C-terminal amide; PL3 (1), B5 (4), S8 (11) stapled by olefin metathesis (PL3-B5 and B5-S8)
notes: Stapled peptide composition

target: T1, full-length beta-Catenin (Uniprot ID …); assay: FP competition vs 5FAM-TCF4(10-53) probe on full-length beta-catenin
Procedure: (§1) The plate was incubated protected from light for 60 minutes at 20° C. prior to read. Reads were performed on a CLARIOstar plate reader (BMG Labtech) in duplicate, and data were fitted to a 1:1 binding model with hill slope using an in-house script. All provided concentrations are final concentrations.

EC50	Binder
5 µM	B1
4.2 µM	B2
3.47 µM	B3
1.75 µM	B4
5 µM	B5
5 µM	B6
5 µM	B7
5 µM	B8
5 µM	B9
5 µM	B10
3.98 µM	B11

target: T2, full-length beta-Catenin (Uniprot ID …); assay: fluorescence polarization competition; full-length beta-catenin + 5FAM-TCF4(10-53) probe as competitor; peptide titrated
Procedure: as §1

EC50	Binder
3.32 µM	B12
1.75 µM	Ac-[αAllylPro]DA[B5(4)]DEAA[Phe(3-Me)]V[S8]FWQ-NH2 (staple 1-4, 4-11, Stapled peptide composition) [I-208]
0.31 µM	B13
3.11 µM	Ac-[αAllylPro]DA[B5(4)]DEAA[Phe(3,4-F2)]V[S8]F[2Nal]Q-NH2 (staple 1-4, 4-11, Stapled peptide composition) [I-184]
1.63 µM	B14

target: T2, full-length beta-Catenin (Uniprot ID …); assay: AlphaScreen (nickel chelate) competition; full-length beta-catenin + biotin-TCF4(10-53) probe as competitor; peptide titrated
Procedure: as §1, with “Equal volume of the titrated peptide was added to the” for “The”, “and” for “was”, “incubated for 15 minutes at 20° C. Then 4 uL of donor and 4 uL acceptor beads at 10 ug/mL were added to the plate, for a 16 uL reaction pool and” for “incubated”

EC50	Binder
0.204 µM	B12
0.143 µM	Ac-[αAllylPro]DA[B5(4)]DEAA[Phe(3-Me)]V[S8]FWQ-NH2 (staple 1-4, 4-11, Stapled peptide composition) [I-208]
0.051 µM	B13
0.628 µM	Ac-[αAllylPro]DA[B5(4)]DEAA[Phe(3,4-F2)]V[S8]F[2Nal]Q-NH2 (staple 1-4, 4-11, Stapled peptide composition) [I-184]
0.152 µM	B14
